Reference: PMC3376133, “Glutamine versus Ammonia Utilization in the NAD Synthetase Family” (PLoS ONE, 2012)

B1: mj_NADS (Methanocaldococcus jannaschii DSM 2661) (protein)
chain: MLWGESMEEIVNKITKFIREKVEEANANGVVVGLSGGIDSSVTAYLCVKALGKDKVLGLIMPEKNTNPKDVEHAKMVAENLGIKYIISDITDILKAFGAGGYVPTREFDKIADGNLKARIRMCILYYFANKYNLLVAGTSNKSEIYVGYGTKHGDIACDIRPIGNLFKTEVKKLAKYIGVPKEIIEKPPSAGLWEGQTDEEELDIKYETLDTILKLYEKGKTPEEIHKETNIPLETINYVFDLIKKNEHKRTLPPTPEI
notes: full-length single-domain NADS, N-terminal His6-tag, pET-derived vector, E. coli BL21/DE3

Tests used:
[1] = target: T1, tt_NADS S-subunit (Thermus thermophilus, UniProt Q72HE9); test: coupled alcohol dehydrogenase assay, NADH at […] nm; type: biochemical; conditions: ammonia as amide donor, ATP; constants possibly in Figure 3C
T1 construct: gene TT_C1538; S-subunit expressed alone in E. coli BL21/DE3, N-terminal His6-tag
T1 sequence (Q72HE9 1-281): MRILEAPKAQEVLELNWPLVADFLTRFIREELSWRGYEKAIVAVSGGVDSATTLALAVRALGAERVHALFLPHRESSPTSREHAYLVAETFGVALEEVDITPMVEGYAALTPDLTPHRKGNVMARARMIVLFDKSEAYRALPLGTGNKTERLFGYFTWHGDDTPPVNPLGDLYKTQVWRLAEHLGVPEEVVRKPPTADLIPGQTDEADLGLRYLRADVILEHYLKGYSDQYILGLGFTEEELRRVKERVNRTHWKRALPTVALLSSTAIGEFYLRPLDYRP

[2] = substrate: Nc1ncnc2c1ncn2[C@@H]1O[C@H](COP(=O)(O)OP(=O)([O-])OC[C@H]2O[C@@H]([n+]3cccc(C(=O)O)c3)[C@H](O)[C@@H]2O)[C@@H](O)[C@H]1O; test: steady-state kinetics of NAD synthetase activity; type: biochemical, Methanocaldococcus jannaschii; conditions: ammonia 4 mM, saturating ATP (2 mM), 10 mM MgCl2, pH 7.5

| Molecule | coupled alcohol dehydrogenase assay, NADH at 340 nm [1] | Km [2] | kcat [2] |
| --- | --- | --- | --- |
| Nc1ncnc2c1ncn2[C@@H]1O[C@H](COP(=O)(O)OP(=O)([O-])OC[C@H]2O[C@@H]([n+]3cccc(C(=O)O)c3)[C@H](O)[C@@H]2O)[C@@H](O)[C@H]1O [NaAD] | the S-subunit alone ... had a comparable NADS activity only with ammonia |  |  |
| B1 |  | 130 ± 20 µM | 0.20 ± 0.01 s⁻¹ |
